The data set deals with APOBEC3G (A3G) (UniProt Q9HC16). The data set is described as follows: AFM imaging. Conditions: protein:DNA 2:1, Force spectroscopy probing buffer: 50 mM HEPES, 100 mM NaCl, 5 mM MgCl2, 1 mM DTT (pH and temperature not given), imaging buffer not in the material.
Sequence of APOBEC3G (A3G) (Q9HC16 whole entry): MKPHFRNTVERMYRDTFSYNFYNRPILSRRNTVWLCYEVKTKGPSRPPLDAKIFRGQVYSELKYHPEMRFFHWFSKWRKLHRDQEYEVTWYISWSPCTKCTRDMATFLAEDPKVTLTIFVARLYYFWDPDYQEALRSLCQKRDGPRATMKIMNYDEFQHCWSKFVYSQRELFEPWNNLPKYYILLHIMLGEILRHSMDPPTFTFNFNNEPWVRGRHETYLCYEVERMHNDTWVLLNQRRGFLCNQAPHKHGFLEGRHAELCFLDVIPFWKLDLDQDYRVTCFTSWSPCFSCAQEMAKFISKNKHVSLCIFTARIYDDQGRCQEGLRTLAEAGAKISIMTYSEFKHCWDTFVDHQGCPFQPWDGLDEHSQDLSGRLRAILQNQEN

Regarding “418 bp duplex with 69 nt deaminase specific overhang”, the binding signal (% complex yield) came to 79.7.

As for “418 bp duplex with 69 nt nonspecific overhang”, the binding signal (% complex yield) (p = 0.12 vs specific (not significant)) came to 72.8.

The values are drawn from paper PMC4621513.
